Laboratory results reported in patent publication US20200087416A1.

Legend:
[1] = molecular target: human PCSK9 (PCSK9 antigen, SEQ ID NO. 53) (human); experiment: MSD-SET, Fab with biotin-PCSK9 in solution, IgG on plate, pH 7.4
[2] = molecular target: murine PCSK-9 (murine) (UniProt Q80W65); experiment: as above
[3] = molecular target: cynomolgus PCSK-9 (cynomolgus); experiment: as above
[4] = molecular target: human PCSK9 (PCSK9 antigen, SEQ ID NO. 53) (human); experiment: MSD-SET, Fab with biotin-PCSK9 in solution, IgG on plate, pH 6.0
[5] = molecular target: cynomolgus PCSK-9 (cynomolgus); experiment: BLI (ForteBio), IgG on AHQ sensor, 100 nM antigen

Kd [1] | Kd [2] | Kd [3] | Kd [4] | Kd [5] | Binder
0.021 nM | 0.065 nM | 0.026 nM | 0.038 nM | – | Bococizumab Fab (Fab, INN chains, looked up, V domains shown, Fab) VH: QVQLVQSGAEVKKPGASVKVSCKASGYTFTSYYMHWVRQAPGQGLEWMGEISPFGGRTNYNEKFKSRVTMTRDTSTSTVYMELSSLRSEDTAVYYCARERPLYASDLWGQGTTVTVSS VL: DIQMTQSPSSLSASVGDRVTITCRASQGISSALAWYQQKPGKAPKLLIYSASYRYTGVPSRFSGSGSGTDFTFTISSLQPEDIATYYCQQRYSLWRTFGQGTKLEIK
– | – | – | – | 2.34 nM | Lodelcizumab (antibody, INN chains, looked up, V domains shown) VH: QVQLVQSGAEVKKPGASVKVSCKASGYTFSTMYMSWVRQAPGQGLEWMGRIDPANEHTNYAQKFQGRVTMTRDTSISTAYMELSRLTSDDTAVYYCARSYYYYNMDYWGQGTLVTVSS VL: QIVLTQSPATLSVSPGERATLSCRASQSVSYMHWYQQKPGQAPRLLIYGVFRRATGIPDRFSGSGSGTDFTLTIGRLEPEDFAVYYCLQWSSDPPTFGQGTKLEIK
– | – | 0.1 nM | – | – | Lodelcizumab Fab (Fab, INN chains, looked up, V domains shown, Fab) VH: QVQLVQSGAEVKKPGASVKVSCKASGYTFSTMYMSWVRQAPGQGLEWMGRIDPANEHTNYAQKFQGRVTMTRDTSISTAYMELSRLTSDDTAVYYCARSYYYYNMDYWGQGTLVTVSS VL: QIVLTQSPATLSVSPGERATLSCRASQSVSYMHWYQQKPGQAPRLLIYGVFRRATGIPDRFSGSGSGTDFTLTIGRLEPEDFAVYYCLQWSSDPPTFGQGTKLEIK
